Measured values as given in the supplement of paper PMC10567573.

B1: DCAF4 (parent)
chain: DSHILLCLMGLAETPGCATLLPAS

Variants of: B1
Assay: protein stability index of a GFP-peptide fusion (GPS, HEK-293T) (PSI 1-6); higher = more stable
Details: c terminus: a fixed tail appended
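Further: lentivirally expressed fusions sorted by FACS into six bins by GFP to DsRed ratio, PSI derived from sequencing read proportions per bin multiplied by bin number.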

Variant | protein stability index
DSHILLCLMQLAETPGCATLLPAS | 2.23
DSHILLCLMALAETPGCATLLPAS | 1.84
DSHILLCLMFLAETPGCATLLPAS | 2.99
DSHILLCLMYLAETPGCATLLPAS | 2.37
DSHILLCLMTLAETPGCATLLPAS | 3.51
DSHILLCLMHLAETPGCATLLPAS | 3.23
DSHILLVLMGLAETPGCATLLPAS | 2.19
DSHILLALMGLAETPGCATLLPAS | 2.67
DSHILLSLMGLAETPGCATLLPAS | 1.55
DSHILLILMGLAETPGCATLLPAS | 2.51
DSHILLMLMGLAETPGCATLLPAS | 2.11
DSHILLFLMGLAETPGCATLLPAS | 2.76
DSHILLRLMGLAETPGCATLLPAS | 2.1
DSHILLDLMGLAETPGCATLLPAS | 1.78
DSHILLQLMGLAETPGCATLLPAS | 1.8
DSHILLHLMGLAETPGCATLLPAS | 2.9
DSHILLPLMGLAETPGCATLLPAS | 2.47
DSHILLWLMGLAETPGCATLLPAS | 3.65
DSHILLKLMGLAETPGCATLLPAS | 2.14
DSHILLELMGLAETPGCATLLPAS | 1.7
DSHILLNLMGLAETPGCATLLPAS | 2.08
DSHILLGLMGLAETPGCATLLPAS | 2.32
DSHILLYLMGLAETPGCATLLPAS | 3
DSHYLLCLMGLAETPGCATLLPAS | 2.33

Variant | protein stability index
DSHTLLCLMGLAETPGCATLLPAS | 1.93
DSHWLLCLMGLAETPGCATLLPAS | 2.97
DSHVLLCLMGLAETPGCATLLPAS | 3.46
DSHILLCLMGYAETPGCATLLPAS | 3.55
DSHILLCLMGRAETPGCATLLPAS | 2.05
DSHILLCLMGCAETPGCATLLPAS | 2.76
DSHILLCLMGWAETPGCATLLPAS | 1.8
DSHILLCLMGSAETPGCATLLPAS | 1.4
DSHILLCLMGGAETPGCATLLPAS | 1.6
DSHILLCLMGKAETPGCATLLPAS | 1.71
DSHILLCLMGVAETPGCATLLPAS | 2.65
DSHILLCLMGDAETPGCATLLPAS | 1.66
DSHILLCLMGMAETPGCATLLPAS | 2.42
DSHILLCLMGHAETPGCATLLPAS | 2.36
DSHILLCLMGNAETPGCATLLPAS | 1.27
DSHILLCLMGIAETPGCATLLPAS | 1.97
DSHILLCLMGFAETPGCATLLPAS | 2.98
DSHILLCLMGEAETPGCATLLPAS | 1.3
DSHILLCLMGQAETPGCATLLPAS | 1.66
DSHILLCLMGTAETPGCATLLPAS | 2.7
DSHILLCLMGPAETPGCATLLPAS | 2.59
DSHILLCLMGAAETPGCATLLPAS | 2.08
DSHILLCLMGLAETMGCATLLPAS | 2.44
DSHILLCLMGLAETIGCATLLPAS | 2.35

Variant | protein stability index
DSHILLCLMGLAETTGCATLLPAS | 2.3
DSHILLCLMGLAETSGCATLLPAS | 2.52
DSHILLCLMGLAETKGCATLLPAS | 1.78
DSHILLCLMGLAETCGCATLLPAS | 2.61
DSHILLCLMGLAETGGCATLLPAS | 2.54
DSHILLCLMGLAETFGCATLLPAS | 3.63
DSHILLCLMGLAETVGCATLLPAS | 2.59
DSHILLCLMGLAETAGCATLLPAS | 3.15
DSHILLCLMGLAETDGCATLLPAS | 2.56
DSHILLCLMGLAETLGCATLLPAS | 3.33
DSHILLCLMGLAETNGCATLLPAS | 1.35
DSHILLCLMGLAETRGCATLLPAS | 2.66
DSHILLCLMGLAETEGCATLLPAS | 2.06
DSHILLCLMGLIETPGCATLLPAS | 2.11
DSHILLCLMGLMETPGCATLLPAS | 2.66
DSHILLCLMGLFETPGCATLLPAS | 3.3
DSHILLCLMGLEETPGCATLLPAS | 2.25
DSHILLCLMGLPETPGCATLLPAS | 3.88
DSHILLCLMGLWETPGCATLLPAS | 4.01
DSHILLCLMGLRETPGCATLLPAS | 2.39
DSHILLCLMGLYETPGCATLLPAS | 4
DSHILLCLMGLQETPGCATLLPAS | 2.74
DSHILLCLMGLKETPGCATLLPAS | 1.92
DSHILLCLMGLCETPGCATLLPAS | 2.96

Variant | protein stability index
DSHILLCLMGLLETPGCATLLPAS | 2.76
DSHILLCLMGLHETPGCATLLPAS | 2.59
DSHILLCLMGLNETPGCATLLPAS | 1.69
DSHILLCLMGLSETPGCATLLPAS | 2.37
DSHILLCLMGLDETPGCATLLPAS | 2.02
DSHILLCLMGLAKTPGCATLLPAS | 2.59
DSHILLCLMGLAQTPGCATLLPAS | 2.36
DSHILLCLMGLAVTPGCATLLPAS | 4.1
DSHILLCLMGLAMTPGCATLLPAS | 3.96
DSHILLCLMGLATTPGCATLLPAS | 2.89
DSHILLCLMGLAHTPGCATLLPAS | 2.77
DSHILLCLMGLAFTPGCATLLPAS | 2.49
DSHILLCLMGLAITPGCATLLPAS | 4.29
DSHILLCLMGLANTPGCATLLPAS | 2.83
DSHILLCLMGLAATPGCATLLPAS | 3.31
DSHILLCLMGLADTPGCATLLPAS | 3.06
DSHILLCLMGLAPTPGCATLLPAS | 2
DSHILLCLMGLASTPGCATLLPAS | 3.26
DSHILLCLMGLAYTPGCATLLPAS | 3.33
DSHILLCLMGLAGTPGCATLLPAS | 1.88
DSHILLCLMGLACTPGCATLLPAS | 2.88
DSHILLCLMGLALTPGCATLLPAS | 2.42
